Laboratory results from patent US20170190775A1.
pKd: −log10 of the molar value. Blank lines part the entries; values can stand above or below the substance they belong to.

Tests used:
[1] = target: human TREM-1 (hTREM-1) protein (human) (UniProt Q9NP99); experiment: SPR, mAb captured by anti-Fc, hTREM-1 as analyte (Example 11)
[2] = target: human TREM-1 on cells (human) (UniProt Q9NP99); experiment: cell-based or functional assay
[3] = target: T1, full length cynomolgus monkey (c)TREM-1 on cells (cynomolgus monkey); experiment: cell-based or functional assay
T1 sequence: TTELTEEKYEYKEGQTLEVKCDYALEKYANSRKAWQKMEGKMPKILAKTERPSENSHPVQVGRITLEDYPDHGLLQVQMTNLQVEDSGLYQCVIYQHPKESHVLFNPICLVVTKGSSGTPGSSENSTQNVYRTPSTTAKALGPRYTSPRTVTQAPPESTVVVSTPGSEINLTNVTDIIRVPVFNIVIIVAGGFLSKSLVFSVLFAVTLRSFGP

[4] = target: cynomolgus TREM-1 (cTREM-1) protein (cynomolgus monkey); experiment: SPR, mAb captured by anti-Fc, cTREM-1 as analyte (Example 11)

human TREM-1 (hTREM-1) protein (human), sequence (Q9NP99 21-200 limits assumed): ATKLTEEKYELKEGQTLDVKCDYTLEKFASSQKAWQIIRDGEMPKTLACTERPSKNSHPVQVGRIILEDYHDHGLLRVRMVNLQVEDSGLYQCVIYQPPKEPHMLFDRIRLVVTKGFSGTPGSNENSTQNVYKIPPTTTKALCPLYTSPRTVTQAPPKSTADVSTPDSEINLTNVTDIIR
recombinant human PGLYRP1 expressed from E. coli and refolded, sequence (O75594 22-196 limits assumed): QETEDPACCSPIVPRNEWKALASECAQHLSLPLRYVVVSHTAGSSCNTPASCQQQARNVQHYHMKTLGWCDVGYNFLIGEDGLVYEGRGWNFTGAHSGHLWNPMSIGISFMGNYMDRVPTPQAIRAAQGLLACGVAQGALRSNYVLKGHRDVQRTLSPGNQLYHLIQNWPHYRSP
human TREM-1 on cells (human), sequence (Q9NP99 21-234 limits assumed): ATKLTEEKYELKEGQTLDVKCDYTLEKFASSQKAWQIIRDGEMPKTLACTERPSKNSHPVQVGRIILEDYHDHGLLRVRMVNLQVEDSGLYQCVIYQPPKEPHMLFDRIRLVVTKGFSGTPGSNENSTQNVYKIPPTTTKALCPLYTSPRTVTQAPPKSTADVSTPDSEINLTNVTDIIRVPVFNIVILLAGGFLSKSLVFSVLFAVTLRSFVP

Substance: HM2252 (clone 6B1, Hycult Biotech) (antibody)
pKd [1]: 8.52
% remaining activity at 0.003 µg/ml, BWZ/hTREM-1 reporter [2]: 96%
% remaining activity at 0.03 µg/ml, BWZ/hTREM-1 reporter [2]: 122%
% remaining activity at 0.3 µg/ml, BWZ/hTREM-1 reporter [2]: 113%

Substance: MAB1278 (R&D Systems, cat. no. MAB1278) (antibody)
pKd [1]: 8.10
BWZ/hTREM-1 reporter signal, RA synovial fluid, mAb at 0.1 ug/ml, assay 1 [2]: 829000
BWZ/hTREM-1 reporter signal, RA synovial fluid, mAb at 0.1 ug/ml, assay 2 [2]: 691000
BWZ/hTREM-1 reporter signal, RA synovial fluid, mAb at 1 ug/ml, assay 1 [2]: 1.19e+06
BWZ/hTREM-1 reporter signal, RA synovial fluid, mAb at 1 ug/ml, assay 2 [2]: 1.02e+06
BWZ/hTREM-1 reporter signal, RA synovial fluid, mAb at 10 ug/ml, assay 1 [2]: 1.08e+06
BWZ/hTREM-1 reporter signal, RA synovial fluid, mAb at 10 ug/ml, assay 2 [2]: 1.05e+06
IL-6, M2 macrophages on platebound mAb 2 µg/ml [2]: 412 pg/mL
IL-6, M2 macrophages on platebound mAb 6 µg/ml [2]: 877 pg/mL
IL-6, M2 macrophages on platebound mAb 20 µg/ml [2]: 1350 pg/mL
Luminescence, BWZ/hTREM-1 reporter cell + activated neutrophils (8.8 x 10E6 without antibody) [2]: 1e+07 luminescence
TNFa, M2 macrophages on platebound mAb 2 µg/ml [2]: 2000 pg/mL
TNFa, M2 macrophages on platebound mAb 6 µg/ml [2]: 6450 pg/mL
TNFa, M2 macrophages on platebound mAb 20 µg/ml [2]: 7750 pg/mL
fold induction of the BWZ/hTREM-1 reporter signal by platebound antibody [2]: 32 fold
induction of NFAT-driven LacZ production, 1-10 µg/ml plate bound antibody against isotype control [2]: 40 fold
normalised reporter signal, PGN-activated neutrophils (normalised signal) [2]: > 1

Substance: clone TREM-37 (Biolegend, cat. no. 316102) (antibody)
pKd [1]: 9.10
% remaining activity at 0.003 µg/ml, BWZ/hTREM-1 reporter [2]: 98%
% remaining activity at 0.03 µg/ml, BWZ/hTREM-1 reporter [2]: 103%
% remaining activity at 0.3 µg/ml, BWZ/hTREM-1 reporter [2]: 90%
Luminescence, BWZ/hTREM-1 reporter cell + activated neutrophils (8.8 x 10E6 without antibody) [2]: 6.1e+06 luminescence
normalised reporter signal, PGN-activated neutrophils (normalised signal) [2]: > 1

Substance: recombinant human PGLYRP1 expressed from E. coli and refolded (from UniProt O75594 22-196) (ligand)
TNF-α, cynomolgus M2 macrophages, PGN + PGRP-S, donor 1 [3]: 295 pg/mL
TNF-α, cynomolgus M2 macrophages, PGN + PGRP-S, donor 2 [3]: 307 pg/mL
GM-CSF, RA synovial tissue cells, PGN + PGLYRP1 (PGN alone 182) [2]: 616 pg/mL
IL-1beta, RA synovial tissue cells, PGN + PGLYRP1 (PGN alone 2419) [2]: 3770 pg/mL
IL-6, RA synovial tissue cells, PGN + PGLYRP1 (PGN alone 2057) [2]: 4190 pg/mL
IL-8, RA synovial tissue cells, PGN + PGLYRP1 (PGN alone 2575) [2]: 5510 pg/mL
MCP-1, RA synovial tissue cells, PGN + PGLYRP1 (PGN alone 273) [2]: 471 pg/mL
MIP-1beta, RA synovial tissue cells, PGN + PGLYRP1 (PGN alone 2458) [2]: 4400 pg/mL
TNFa, normoxic M2 macrophages, PGN-BS + PGLYRP1, donor 1 (PGN-BS alone 427) [2]: 728 pg/mL
TNFa, normoxic M2 macrophages, PGN-BS + PGLYRP1, donor 2 (PGN-BS alone 381) [2]: 771 pg/mL
TNFalpha, RA synovial tissue cells, PGN + PGLYRP1 (PGN alone 624) [2]: 1440 pg/mL

Substance: sc-80394 (clone 98Z12, Santa Cruz Biotechnology) (antibody)
pKd [1]: 7.52
% remaining activity at 0.003 µg/ml, BWZ/hTREM-1 reporter [2]: 120%
% remaining activity at 0.03 µg/ml, BWZ/hTREM-1 reporter [2]: 134%
% remaining activity at 0.3 µg/ml, BWZ/hTREM-1 reporter [2]: 131%

The next lines start with the values.

% remaining activity at 0.003 µg/ml, BWZ/hTREM-1 reporter [2]: 104%
% remaining activity at 0.03 µg/ml, BWZ/hTREM-1 reporter [2]: 101%
% remaining activity at 0.3 µg/ml, BWZ/hTREM-1 reporter [2]: 97%
Substance: SAB1405121 (clone 3F5, Sigma Aldrich) (antibody)

pKd [1]: 7.70
% remaining activity at 0.003 µg/ml, BWZ/hTREM-1 reporter [2]: 98%
% remaining activity at 0.03 µg/ml, BWZ/hTREM-1 reporter [2]: 104%
% remaining activity at 0.3 µg/ml, BWZ/hTREM-1 reporter [2]: 86%
Substance: WH0054210M4 (clone 2E2, Sigma Aldrich) (antibody)

pKd [1]: 9.05
% remaining cyno TREM-1 activity at 0.74 ug/ml, reporter cell [3]: 104%
% remaining cyno TREM-1 activity at 20 ug/ml, reporter cell [3]: 87.7%
% remaining activity at 0.003 µg/ml, BWZ/hTREM-1 reporter [2]: 100%
% remaining activity at 0.03 µg/ml, BWZ/hTREM-1 reporter [2]: 124%
% remaining activity at 0.3 µg/ml, BWZ/hTREM-1 reporter [2]: 108%
Luminescence, BWZ/hTREM-1 reporter cell + activated neutrophils (8.8 x 10E6 without antibody) [2]: 9.9e+06 luminescence
normalised reporter signal, PGN-activated neutrophils (normalised signal) [2]: > 1
pKd [4]: 8.40
Substance: clone TREM-26 (Biolegend) (antibody)

TNF-a release, RA synovial tissue cells + IgG4 + 1 x 10^3 Type II cells [2]: 57.9 pg/mL
TNF-a release, RA synovial tissue cells + IgG4 + 1 x 10^4 Type II cells [2]: 95 pg/mL
TNF-a release, RA synovial tissue cells + IgG4 + 1 x 10^5 Type II cells [2]: 121 pg/mL
TNF-a release, RA synovial tissue cells + IgG4 + 3 x 10^3 Type II cells [2]: 54.6 pg/mL
TNF-a release, RA synovial tissue cells + IgG4 + 3 x 10^4 Type II cells [2]: 114 pg/mL
Substance: type II PGLYRP1 on transiently transfected HEK cells (ligand)
